Test results taken from publication PMC9152305.

Legend:
[1] = biological target: SARS-CoV-2 Omicron BA.2 spike extracellular domain trimer (SARS-CoV-2 Omicron BA.2) (UniProt P0DTC2); test: BLI
[2] = biological target: SARS-CoV-2 Omicron BA.2 spike extracellular domain trimer (SARS-CoV-2 Omicron BA.2) (UniProt P0DTC2); test: cryo-EM structure

Substance | Kd [1] | stoichiometry N (Fab per spike trimer) [2]
JMB2002 IgG (antibody) | 0.3 nM | –
JMB2002 Fab | 2.6 nM | 3
